One molecule from US20220025032A1 (Novartis, published 2022) can be followed below.

Assay [1] has as its target T1, membrane-bound human BTC on 293F-hBTC cells (human, UniProt P35070 32-111).
T1 construct: the transfected construct is not described; also called membrane-anchored BTC
T1 sequence: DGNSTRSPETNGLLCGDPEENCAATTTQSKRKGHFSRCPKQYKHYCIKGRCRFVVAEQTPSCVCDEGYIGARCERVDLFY
Briefly: flow cytometry on 293F cells with membrane-bound human BTC, anti-human Fab detection. The method, then:
After washing the cells, the cells were dissociated using Versene at 37° C. The cells were washed with FACS buffer and plated at 100 μl in a 96 well plate using cells at 1×10⁶ cells/ml. Then 100 μl of a serial dilution of antibodies starting at 50 nM was used. The cells were incubated, washed and then treated with the secondary anti-human Fab-FITC antibody. The antibodies only bound to the cells expressing BTC. After which the cells were washed and analyzed on the Attune Flow Cytometry. All data analysis was carried out using Flow Jo software.

Assay [2] has as its target T2, Human BTC (human, UniProt P35070 32-111).
T2 construct: Soluble human BTC of the Biacore, ELISA, MSD and cell assays; also called human betacellulin; soluble human BTC
T2 sequence: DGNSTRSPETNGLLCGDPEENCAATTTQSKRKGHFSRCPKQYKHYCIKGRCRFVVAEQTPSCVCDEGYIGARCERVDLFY
Briefly: sandwich ELISA: BTC coated, Fab titrated, detection with VEGF-biotin (bridging readout). The method, then: A sandwich enzyme linked immunosorbent assay (ELISA) was performed by coating either BTC or VEGF, then adding a titration of NVS11 followed by detection with the second target, either biotinylated BTC or biotinylated VEGF. […] Neither of the single Fabs, NVS1 or NVS8, could bind to both BTC and VEGF at the same time.
(In an ELISA, binding on a coated surface is turned into a signal by an enzyme label.)

Assay [3] addresses T3, Human VEGF165 (human, UniProt P15692 27-191).
T3 construct: mature; biotinylated in the VEGFR2 ELISAs; also called human VEGF-A; VEGF-A
As to the kind of experiment: SPR Biacore T200, anti-Fab capture, antigen as analyte (cells shifted left after the merged BTC cell).

For assay [4], the target named is T4, Human BTC-avitag-biotin (human, UniProt P35070 32-111, biotin on the avitag).
T4 construct: also called biotin-BTC; soluble human BTC-avitag-biotin
T4 sequence: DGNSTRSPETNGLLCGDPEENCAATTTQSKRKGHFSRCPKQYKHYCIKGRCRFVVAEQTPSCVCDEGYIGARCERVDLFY
As to the kind of experiment: flow cytometry, BTC-ErbB4 Cell Binding Inhibition with HKB11 cells over-expressing human ErbB4. As to the method: In order to assess potency of the Fabs and bispecific in neutralizing binding of BTC to its receptor Erb 1 or ErbB4, the following assay was performed. HKB11 over-expressing either ErbB1 or ErbB4 cells were plated 1×10⁵ cells/well. Cells were washed once with FACS buffer by spun down at 1200 rpm for 5 minutes and supernatant removed. Next, the Fab sample dilutions and BTC were prepared in FACS buffer. Human BTC-avitag-biotin was diluted to a fixed concentration of 15 nM. The test Fab samples were prepared at a starting concentration of 40 nM and titrated for 9 points at a serial dilution of 1:2. Both biotin-BTC and the test Fab samples are incubated for 30 minutes at room temperature. The pre-incubated samples were then added to the cell plate at 100 μl per well in duplicate and incubated for 1 hour on ice. […]
Measurements were performed on Attune Flow Cytometry machine. Data were analysed using the Flow Jo software. The live cell populations analysed were gated in forward and side scattering (FSC-A/SSC-A dot plot). The interval gate was established on the control histogram, which was obtained with sample incubated in streptavidin-Alexa Fluor488 only, and subsequently, determined percent of positive binding events of cells carrying membrane-bound receptor ErbB1 or ErbB4 and biotin-BTC. The median of fluorescence intensity (MFI) value was also derived for the live cell population. […]
(In flow cytometry, cells or beads pass a laser one at a time.)

Assay [5] concerns the target T3, Human VEGF165. As to the kind of experiment: competition ELISA: antibody pre-incubated with 400 pM VEGF-biotin, added to coated VEGFR2, streptavidin-HRP detection; y axis OD. The method, then:
(§1) The plates were then washed 3 times using 1λTBST. The plates were blocked in 2% BSA diluent (0.1% Tween 20/0.1% TirtonX100) overnight. After blocking, the plates were washed 3 times using TB ST and then the sample mixture was added at 20 μl/well. The sample mixture consisted a final fixed concentration of VEGF-biotin (in-house) at 400 pM and a 15 point 1:2 serial dilution of the antibody starting at 20 nM. The sample mixture was pre-incubated for 1 hour prior to adding to the plate and then incubated for another hour at room temperature on the plate. Afterwards, the plate was washed 3 times using TBST and 20 μl/well of Streptavidin-HRP diluted at 1:5000 was added for an incubation time of 1 hour. The plates were washed 3 times in TBST and then 20 μl/well of TMB substrate was added. TMB is a chromogen that yields a blue color when oxidized. TMB was incubated for 10 minutes until the signal saturated in the no antibody samples, and then 10 μl/well of 2N sulfuric acid was added which then changes the blue color to yellow and this now has a maximum absorbance at 450 nm.

For assay [6], the target named is T3, Human VEGF165. The assay is described as above. The method, then: as §1
This is another data set of the same source.

In assay [7] the target is T3, Human VEGF165. The assay is described as above. As to the method:
as §1
This is another data set of the same source.

Assay [8] has as its target T3, Human VEGF165. Briefly: competition ELISA: antibody pre-incubated with biotinylated human VEGF, added to coated human VEGFR2-Fc, streptavidin-HRP detection; blocked partner VEGFR2-Fc. As to the method:
NVS11 neutralization of VEGF was determined by ELISA. Various concentrations of NVS11 was pre-incubated with biotinylated human VEGF and added to VEGFR2-Fc coated plates.

Like-named read-outs stand apart in the source and are kept apart here.

T3 sequence (P15692 other isoform, or with tags, fused parts or gaps): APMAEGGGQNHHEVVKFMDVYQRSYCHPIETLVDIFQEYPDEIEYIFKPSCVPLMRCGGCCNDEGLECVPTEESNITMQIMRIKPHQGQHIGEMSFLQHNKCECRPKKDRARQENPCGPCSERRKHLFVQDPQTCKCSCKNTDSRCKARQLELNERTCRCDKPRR

B1: NVS8 (Fab, V domains shown)
VH: EVQLVESGGGLVQPGGSLRLSCTASGFSLTDYYYMTWVRQAPGKGLEWVGFIDPDDDPYYATWAKGRFTISRDNSKNTLYLQMNSLRAEDTAVYYCAGGDHNSGWGLDIWGQGTLVTVSS
VL: EIVMTQSPSTLSASVGDRVIITCQASEIIHSWLAWYQQKPGKAPKLLIYLASTLASGVPSRFSGSGSGAEFTLTISSLQPDDFATYYCQNVYLASTNGANFGQGTKLTVLK
notes: Fab version of the anti-VEGF 1008 scFv; also called anti-VEGF Fab
As to B1, the binding result is “no binding (tested: about 25 nM)” in assay [1], “no binding (tested: about 10-20 nM (last marker hidden))” in assay [2] and “no binding (tested: about 25 nM)” in assay [4]. Further, in assay [3], the Kd (in general, the constant that tells how readily two partners part at equilibrium) came out at 0.003 nM. The IC50 (usually the concentration needed to halve the response being measured) in assay [5] amounted to 0.737 nM; in assay [6] it was 1.35 nM; in assay [7], 1.35 nM. Besides, the “IC50 (read off the curve)” value in assay [8] was roughly 0.7 nM.
